System: Escherichia coli TOP10
Test: shrunken log2 fold change of peptide-encoding DNA abundance (4.5 h post-induction vs induction); higher = less antimicrobial activity (less host growth inhibition)
Conditions: time post-induction: 4.5 h; library: site-saturation at positions 5, 18, 19, 20
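Also: peptides expressed intracellularly from a pBAD plasmid library in pooled LB shake-flask culture, induced with 0.3% L-arabinose, DNA abundance read by NGS, three biological replicates, DESeq2 with apeglm shrinkage.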

| Sequence | shrunken log2 fold change |
| --- | --- |
| RRIRPRPPRLPRPRPRPQSNPRP | -0.285 |
| RRIRYRPPRLPRPRPRPLRGPRP | 0.561 |
| RRIRWRPPRLPRPRPRPHQNPRP | -0.00311 |
| RRIRCRPPRLPRPRPRPIQGPRP | -0.0195 |
| RRIRRRPPRLPRPRPRPTTCPRP | 0.379 |
| RRIRSRPPRLPRPRPRPAPGPRP | 0.54 |
| RRIRIRPPRLPRPRPRPNRTPRP | 0.101 |
| RRIRDRPPRLPRPRPRPYTRPRP | -0.0984 |
| RRIRCRPPRLPRPRPRPNMMPRP | -0.475 |
| RRIRARPPRLPRPRPRPINWPRP | 0.139 |
| RRIRQRPPRLPRPRPRPQKTPRP | -0.064 |
| RRIRIRPPRLPRPRPRPLTRPRP | -0.265 |
| RRIRARPPRLPRPRPRPPEHPRP | 0.606 |
| RRIRHRPPRLPRPRPRPKATPRP | 0.00379 |
| RRIRQRPPRLPRPRPRPWQHPRP | -0.0358 |
| RRIRSRPPRLPRPRPRPCIAPRP | -0.22 |
| RRIRCRPPRLPRPRPRPVTRPRP | 0.197 |
| RRIRGRPPRLPRPRPRPFGHPRP | -0.164 |
| RRIRERPPRLPRPRPRPHKCPRP | 0.0924 |
| RRIRLRPPRLPRPRPRPYVCPRP | -0.0658 |
| RRIRNRPPRLPRPRPRPLAEPRP | 0.108 |
| RRIRSRPPRLPRPRPRPHRLPRP | -0.288 |
| RRIRSRPPRLPRPRPRPSKHPRP | -0.461 |
| RRIRFRPPRLPRPRPRPVNFPRP | -0.39 |
| RRIRFRPPRLPRPRPRPIQIPRP | -0.234 |

| Sequence | shrunken log2 fold change |
| --- | --- |
| RRIRNRPPRLPRPRPRPGKRPRP | 0.00355 |
| RRIRTRPPRLPRPRPRPGCNPRP | 0.0386 |
| RRIRCRPPRLPRPRPRPQEQPRP | 0.0612 |
| RRIRQRPPRLPRPRPRPKKIPRP | -0.0759 |
| RRIRMRPPRLPRPRPRPATGPRP | 0.15 |
| RRIRGRPPRLPRPRPRPYHEPRP | 0.182 |
| RRIRSRPPRLPRPRPRPTRHPRP | 0.227 |
| RRIRMRPPRLPRPRPRPMSNPRP | 0.0851 |
| RRIRLRPPRLPRPRPRPQHSPRP | -0.337 |
| RRIRLRPPRLPRPRPRPKAPPRP | 0.00522 |
| RRIRTRPPRLPRPRPRPMDCPRP | -0.0416 |
| RRIRWRPPRLPRPRPRPYPNPRP | -0.58 |
| RRIRLRPPRLPRPRPRPDAWPRP | 0.457 |
| RRIRDRPPRLPRPRPRPPDSPRP | 0.0832 |
| RRIRYRPPRLPRPRPRPQIGPRP | 0.00262 |
| RRIRNRPPRLPRPRPRPMTDPRP | -0.088 |
| RRIRVRPPRLPRPRPRPSATPRP | 0.43 |
| RRIRKRPPRLPRPRPRPKQYPRP | -0.222 |
| RRIRTRPPRLPRPRPRPVGHPRP | -0.00107 |
| RRIRIRPPRLPRPRPRPPHRPRP | -0.144 |
| RRIRERPPRLPRPRPRPKKTPRP | -0.0747 |
| RRIRTRPPRLPRPRPRPAQQPRP | 0.233 |
| RRIRWRPPRLPRPRPRPHHGPRP | -0.234 |
| RRIRRRPPRLPRPRPRPVMNPRP | 0.0331 |
| RRIRFRPPRLPRPRPRPDGDPRP | 0.0613 |

| Sequence | shrunken log2 fold change |
| --- | --- |
| RRIRIRPPRLPRPRPRPFYIPRP | -0.308 |
| RRIRKRPPRLPRPRPRPINVPRP | 0.095 |
| RRIRYRPPRLPRPRPRPWIEPRP | -0.866 |
| RRIRLRPPRLPRPRPRPCSSPRP | -0.157 |
| RRIRFRPPRLPRPRPRPGTAPRP | 0.0678 |
| RRIRFRPPRLPRPRPRPTPKPRP | 0.681 |
| RRIRTRPPRLPRPRPRPKNHPRP | -0.712 |
| RRIRCRPPRLPRPRPRPVNCPRP | -0.0215 |
| RRIRHRPPRLPRPRPRPGWCPRP | 0.399 |
| RRIRIRPPRLPRPRPRPGRYPRP | -0.0696 |
| RRIRCRPPRLPRPRPRPSCHPRP | -0.301 |
| RRIRIRPPRLPRPRPRPEPNPRP | -0.0783 |
| RRIRWRPPRLPRPRPRPKTDPRP | 0.204 |
| RRIRTRPPRLPRPRPRPQATPRP | 0.119 |
| RRIRTRPPRLPRPRPRPFQCPRP | -0.0173 |
| RRIRYRPPRLPRPRPRPGIHPRP | -0.467 |
| RRIRVRPPRLPRPRPRPRHQPRP | -0.138 |
| RRIRKRPPRLPRPRPRPLTQPRP | 0.198 |
| RRIRHRPPRLPRPRPRPKYWPRP | -0.2 |
| RRIRYRPPRLPRPRPRPWNRPRP | -0.0135 |
| RRIRTRPPRLPRPRPRPYNRPRP | -0.0176 |
| RRIRMRPPRLPRPRPRPFQWPRP | -0.0962 |
| RRIRIRPPRLPRPRPRPKNDPRP | -0.867 |
| RRIRERPPRLPRPRPRPMWDPRP | -0.0758 |
| RRIRRRPPRLPRPRPRPLKIPRP | -0.0377 |

| Sequence | shrunken log2 fold change |
| --- | --- |
| RRIRCRPPRLPRPRPRPEAKPRP | 0.208 |
| RRIRHRPPRLPRPRPRPTGRPRP | -0.089 |
| RRIRVRPPRLPRPRPRPWSVPRP | -0.0304 |
| RRIRFRPPRLPRPRPRPKVIPRP | -0.212 |
| RRIRARPPRLPRPRPRPTPFPRP | 0.609 |
| RRIRERPPRLPRPRPRPMHEPRP | -0.401 |
| RRIRPRPPRLPRPRPRPGHTPRP | 0.179 |
| RRIRMRPPRLPRPRPRPPLYPRP | 0.445 |
| RRIRVRPPRLPRPRPRPCWSPRP | 0.0821 |
| RRIRMRPPRLPRPRPRPRVHPRP | 0.446 |
| RRIRVRPPRLPRPRPRPSRCPRP | -0.101 |
| RRIRDRPPRLPRPRPRPAGFPRP | 0.0112 |
| RRIRRRPPRLPRPRPRPIWKPRP | -0.184 |
| RRIRLRPPRLPRPRPRPSRFPRP | -0.211 |
| RRIRDRPPRLPRPRPRPHFLPRP | 0.0122 |
| RRIRIRPPRLPRPRPRPVGPPRP | 0.0747 |
| RRIRHRPPRLPRPRPRPAAVPRP | 0.0752 |
| RRIRTRPPRLPRPRPRPAFTPRP | 0.0137 |
| RRIRMRPPRLPRPRPRPIVSPRP | -0.0362 |
| RRIRGRPPRLPRPRPRPFISPRP | 0.183 |
| RRIRLRPPRLPRPRPRPCYKPRP | -0.133 |
| RRIRARPPRLPRPRPRPHYAPRP | -0.0521 |
| RRIRQRPPRLPRPRPRPAFEPRP | -0.0876 |
| RRIRFRPPRLPRPRPRPLTFPRP | -0.391 |
| RRIRVRPPRLPRPRPRPWASPRP | 0.0586 |

| Sequence | shrunken log2 fold change |
| --- | --- |
| RRIRCRPPRLPRPRPRPFPFPRP | -0.353 |
| RRIRCRPPRLPRPRPRPEERPRP | -0.0298 |
| RRIRERPPRLPRPRPRPANVPRP | -0.0342 |
| RRIRYRPPRLPRPRPRPLYIPRP | -0.999 |
| RRIRVRPPRLPRPRPRPTLEPRP | 0.413 |
| RRIRMRPPRLPRPRPRPFLEPRP | -0.088 |
| RRIRGRPPRLPRPRPRPMMMPRP | 0.574 |
| RRIRRRPPRLPRPRPRPCNIPRP | -0.373 |
| RRIRFRPPRLPRPRPRPACPPRP | 0.12 |
| RRIRQRPPRLPRPRPRPHADPRP | -0.43 |
| RRIRWRPPRLPRPRPRPQGCPRP | 0.0267 |
| RRIRKRPPRLPRPRPRPHVGPRP | 0.176 |
| RRIRKRPPRLPRPRPRPTRNPRP | 0.547 |
| RRIRIRPPRLPRPRPRPVERPRP | 0.0257 |
| RRIRARPPRLPRPRPRPFVNPRP | 0.164 |
| RRIRTRPPRLPRPRPRPRFEPRP | 0.0138 |
| RRIRARPPRLPRPRPRPLLKPRP | 0.0989 |
| RRIRDRPPRLPRPRPRPIKIPRP | 0.0725 |
| RRIRRRPPRLPRPRPRPNNPPRP | 0.0225 |
| RRIRVRPPRLPRPRPRPDVRPRP | -0.106 |
| RRIRERPPRLPRPRPRPQIWPRP | 0.0182 |
| RRIRWRPPRLPRPRPRPKSNPRP | -0.164 |
| RRIRRRPPRLPRPRPRPHHPPRP | -0.0853 |
| RRIRLRPPRLPRPRPRPDHQPRP | -0.118 |
| RRIRFRPPRLPRPRPRPAIDPRP | -0.00326 |

| Sequence | shrunken log2 fold change |
| --- | --- |
| RRIRPRPPRLPRPRPRPTRLPRP | 0.769 |
| RRIRGRPPRLPRPRPRPFAVPRP | 0.396 |
| RRIRQRPPRLPRPRPRPGCMPRP | 0.175 |
| RRIRNRPPRLPRPRPRPFREPRP | -0.0373 |
| RRIRPRPPRLPRPRPRPWTAPRP | -0.305 |
| RRIRWRPPRLPRPRPRPATIPRP | -0.0366 |
| RRIRYRPPRLPRPRPRPKEAPRP | -0.0135 |
| RRIRQRPPRLPRPRPRPGFTPRP | -0.11 |
| RRIRARPPRLPRPRPRPWHPPRP | -0.00894 |
| RRIRLRPPRLPRPRPRPGGDPRP | 0.152 |
| RRIRMRPPRLPRPRPRPCKHPRP | 0.0196 |
| RRIRIRPPRLPRPRPRPWWLPRP | -0.0152 |
| RRIRVRPPRLPRPRPRPLMEPRP | -0.21 |
| RRIRKRPPRLPRPRPRPFEDPRP | -0.136 |
| RRIRKRPPRLPRPRPRPNFQPRP | 0.287 |
| RRIRSRPPRLPRPRPRPFLSPRP | -0.063 |
| RRIRDRPPRLPRPRPRPYEFPRP | 0.047 |
| RRIRSRPPRLPRPRPRPYFWPRP | -0.538 |
| RRIRCRPPRLPRPRPRPTTEPRP | 0.419 |
| RRIRWRPPRLPRPRPRPYTWPRP | -0.397 |
| RRIRSRPPRLPRPRPRPYSDPRP | -0.0368 |
| RRIRHRPPRLPRPRPRPVLMPRP | -0.381 |
| RRIRFRPPRLPRPRPRPWFVPRP | -0.283 |
| RRIRWRPPRLPRPRPRPFDQPRP | -0.102 |
| RRIRLRPPRLPRPRPRPFPQPRP | -0.0558 |
